Results as given in patent US20260152543A1 (KRIYA THERAPEUTICS, published 2026).

What was measured:
[1] = target: C4b (Complement Tech) (UniProt P0C0L4); assay: BLI (GatorPrime), His-tagged protein on Ni-NTA probe, ligand in 7-point dilution series
[2] = target: C4b (Complement Tech) (UniProt P0C0L4); assay: BLI (GatorPrime), ratio of KD to that of rhCR1 for C4b
[3] = target: C4b (Complement Tech) (UniProt P0C0L4); assay: SPR (Biacore 8K), His-tagged fusion protein captured by anti-His on CM5, C4b analyte 62.5-2000 nM, steady state affinity
[4] = target: C4b (Complement Tech) (UniProt P0C0L4); assay: SPR (Biacore 8K), His-tagged receptor captured by anti-His on CM5, C4b analyte 31.25-2000 nM, steady state affinity
[5] = target: T1, iC3b (Complement Tech) (UniProt P01024 23-667; P01024 749-1303; P01024 1321-1663, limits assumed); assay: SPR (Biacore 8K), His-tagged receptor captured by anti-His on CM5, iC3b analyte 19.5-1250 nM, steady state affinity
T1 construct: iC3b is a multi-chain fragment of C3
T1 sequence (P01024 23-667 limits assumed, chain 1 of 3): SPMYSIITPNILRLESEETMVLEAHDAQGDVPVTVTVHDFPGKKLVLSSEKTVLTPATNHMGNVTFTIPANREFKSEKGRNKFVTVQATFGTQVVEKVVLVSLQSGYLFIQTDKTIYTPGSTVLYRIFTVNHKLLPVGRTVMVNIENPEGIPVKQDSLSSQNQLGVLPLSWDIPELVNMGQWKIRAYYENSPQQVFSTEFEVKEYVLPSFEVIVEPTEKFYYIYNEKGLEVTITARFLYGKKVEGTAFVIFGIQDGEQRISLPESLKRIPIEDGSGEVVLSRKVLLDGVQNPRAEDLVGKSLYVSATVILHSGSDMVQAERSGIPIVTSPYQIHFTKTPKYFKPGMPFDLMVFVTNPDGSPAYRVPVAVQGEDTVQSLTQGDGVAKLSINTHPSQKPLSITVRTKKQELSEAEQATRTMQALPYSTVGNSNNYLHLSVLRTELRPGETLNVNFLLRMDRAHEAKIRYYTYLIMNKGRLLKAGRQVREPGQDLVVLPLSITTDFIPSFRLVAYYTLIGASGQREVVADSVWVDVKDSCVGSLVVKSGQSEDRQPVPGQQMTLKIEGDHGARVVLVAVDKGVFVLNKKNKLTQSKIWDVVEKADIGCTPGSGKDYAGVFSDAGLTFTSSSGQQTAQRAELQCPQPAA
T1 sequence (P01024 749-1303 limits assumed, chain 2 of 3): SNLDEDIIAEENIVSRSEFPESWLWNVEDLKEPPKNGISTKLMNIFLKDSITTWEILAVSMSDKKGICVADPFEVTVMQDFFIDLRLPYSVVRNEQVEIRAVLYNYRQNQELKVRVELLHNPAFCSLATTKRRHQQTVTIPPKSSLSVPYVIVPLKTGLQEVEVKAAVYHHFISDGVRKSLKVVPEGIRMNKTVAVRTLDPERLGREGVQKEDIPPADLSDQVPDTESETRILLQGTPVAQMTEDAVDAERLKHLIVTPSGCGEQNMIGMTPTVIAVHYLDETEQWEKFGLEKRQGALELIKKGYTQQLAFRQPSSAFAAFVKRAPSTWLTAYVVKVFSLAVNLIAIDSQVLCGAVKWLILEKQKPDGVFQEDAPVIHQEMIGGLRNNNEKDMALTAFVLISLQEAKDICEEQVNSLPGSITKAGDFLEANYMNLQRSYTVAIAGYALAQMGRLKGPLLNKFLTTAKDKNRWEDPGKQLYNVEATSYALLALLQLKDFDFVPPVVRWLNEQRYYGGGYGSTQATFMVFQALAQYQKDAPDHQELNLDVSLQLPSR
T1 sequence (P01024 1321-1663 limits assumed, chain 3 of 3): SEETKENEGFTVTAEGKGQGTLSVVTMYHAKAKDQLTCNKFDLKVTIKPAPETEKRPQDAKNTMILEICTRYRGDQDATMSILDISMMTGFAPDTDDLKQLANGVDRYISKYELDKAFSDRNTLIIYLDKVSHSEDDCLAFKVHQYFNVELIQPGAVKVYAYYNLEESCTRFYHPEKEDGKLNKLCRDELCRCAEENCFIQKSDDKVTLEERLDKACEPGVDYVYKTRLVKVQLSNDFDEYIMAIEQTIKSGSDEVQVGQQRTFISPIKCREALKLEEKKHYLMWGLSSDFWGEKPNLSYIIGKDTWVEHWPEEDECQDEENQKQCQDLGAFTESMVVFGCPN
Experimental: The binding of recombinant human CR1, recombinant human CR2, and recombinant CR2CR1 #1 (SEQ ID NO: 22), and recombinant CR2CR1 #7 (SEQ ID NO: 12) protein to their respective ligands C3b, C4b, iC3b, and/or C3d was analyzed using a Biacore 8K SPR system (Cytiva). Histidine-tagged complement receptors and fusion proteins were immobilized onto Series S Sensor Chip CM5 using a His Antibody Capture Kit, with capture levels of 60-470 RU. C3b, C4b, iC3b, and C3d were prepared in 1×HBS-EP buffer (10 mM HEPES, 150 mM NaCl, 3 mM EDTA, and 0.05% v/v Surfactant P20), pH 7.4, at concentrations ranging from 3-16000 nM, and the analytes were injected at a flow rate of 30 μL/min. Binding at 25° C. was monitored for 150 seconds, followed by a dissociation phase of 300 seconds. Chip sensors were regenerated for 60 seconds with 10 mM glycine-HCl buffer, pH 1.5. The data were processed and analyzed with Biacore Insight Evaluation Software; a 1:1 binding model (C3b analyte) or steady state affinity (C4b, iC3b, C3d analytes) was used to calculate the apparent KD value and other kinetic parameters.

[6] = target: T1, iC3b (Complement Tech); assay: BLI (GatorPrime), His-tagged protein on Ni-NTA probe, ligand in 7-point dilution series
Experimental: The binding kinetics of CR2-CR1 fusion proteins, human CR1, and human CR2 to their respective ligands were determined using biolayer interferometry (BLI) with a GatorPrime instrument (Gator Bio). Recombinant His-tagged human CR1 (R&D Systems), human CR2 (R&D Systems), or CR2-CR1 fusion proteins (GenScript) were immobilized onto Ni-NTA probes, and the response signals from the protein-loaded probes binding to C3d, iC3b, C3b, or C4b (Complement Tech) in a 7-point dilution series were measured for a 300 second association step, followed by a 300 second dissociation step in assay buffer. To reduce assay background/noise due to non-specific complement protein binding, a double reference was applied using a 0 nM ligand condition (Sample or Reference Probe Blank) and a series of Ni-NTA probes not loaded with protein (Reference Probe) according to the following equation: Sample Response=(Sample Signal−Reference Probe Signal)−(Sample Blank Signal−Reference Probe Blank Signal). The binding affinity constant, KD, and association/dissociation rate constants, kₒₙ/koff, for all binding interactions were calculated using the GatorOne software (Gator Bio).

Chain of C4b (Complement Tech) (P0C0L4 20-1744): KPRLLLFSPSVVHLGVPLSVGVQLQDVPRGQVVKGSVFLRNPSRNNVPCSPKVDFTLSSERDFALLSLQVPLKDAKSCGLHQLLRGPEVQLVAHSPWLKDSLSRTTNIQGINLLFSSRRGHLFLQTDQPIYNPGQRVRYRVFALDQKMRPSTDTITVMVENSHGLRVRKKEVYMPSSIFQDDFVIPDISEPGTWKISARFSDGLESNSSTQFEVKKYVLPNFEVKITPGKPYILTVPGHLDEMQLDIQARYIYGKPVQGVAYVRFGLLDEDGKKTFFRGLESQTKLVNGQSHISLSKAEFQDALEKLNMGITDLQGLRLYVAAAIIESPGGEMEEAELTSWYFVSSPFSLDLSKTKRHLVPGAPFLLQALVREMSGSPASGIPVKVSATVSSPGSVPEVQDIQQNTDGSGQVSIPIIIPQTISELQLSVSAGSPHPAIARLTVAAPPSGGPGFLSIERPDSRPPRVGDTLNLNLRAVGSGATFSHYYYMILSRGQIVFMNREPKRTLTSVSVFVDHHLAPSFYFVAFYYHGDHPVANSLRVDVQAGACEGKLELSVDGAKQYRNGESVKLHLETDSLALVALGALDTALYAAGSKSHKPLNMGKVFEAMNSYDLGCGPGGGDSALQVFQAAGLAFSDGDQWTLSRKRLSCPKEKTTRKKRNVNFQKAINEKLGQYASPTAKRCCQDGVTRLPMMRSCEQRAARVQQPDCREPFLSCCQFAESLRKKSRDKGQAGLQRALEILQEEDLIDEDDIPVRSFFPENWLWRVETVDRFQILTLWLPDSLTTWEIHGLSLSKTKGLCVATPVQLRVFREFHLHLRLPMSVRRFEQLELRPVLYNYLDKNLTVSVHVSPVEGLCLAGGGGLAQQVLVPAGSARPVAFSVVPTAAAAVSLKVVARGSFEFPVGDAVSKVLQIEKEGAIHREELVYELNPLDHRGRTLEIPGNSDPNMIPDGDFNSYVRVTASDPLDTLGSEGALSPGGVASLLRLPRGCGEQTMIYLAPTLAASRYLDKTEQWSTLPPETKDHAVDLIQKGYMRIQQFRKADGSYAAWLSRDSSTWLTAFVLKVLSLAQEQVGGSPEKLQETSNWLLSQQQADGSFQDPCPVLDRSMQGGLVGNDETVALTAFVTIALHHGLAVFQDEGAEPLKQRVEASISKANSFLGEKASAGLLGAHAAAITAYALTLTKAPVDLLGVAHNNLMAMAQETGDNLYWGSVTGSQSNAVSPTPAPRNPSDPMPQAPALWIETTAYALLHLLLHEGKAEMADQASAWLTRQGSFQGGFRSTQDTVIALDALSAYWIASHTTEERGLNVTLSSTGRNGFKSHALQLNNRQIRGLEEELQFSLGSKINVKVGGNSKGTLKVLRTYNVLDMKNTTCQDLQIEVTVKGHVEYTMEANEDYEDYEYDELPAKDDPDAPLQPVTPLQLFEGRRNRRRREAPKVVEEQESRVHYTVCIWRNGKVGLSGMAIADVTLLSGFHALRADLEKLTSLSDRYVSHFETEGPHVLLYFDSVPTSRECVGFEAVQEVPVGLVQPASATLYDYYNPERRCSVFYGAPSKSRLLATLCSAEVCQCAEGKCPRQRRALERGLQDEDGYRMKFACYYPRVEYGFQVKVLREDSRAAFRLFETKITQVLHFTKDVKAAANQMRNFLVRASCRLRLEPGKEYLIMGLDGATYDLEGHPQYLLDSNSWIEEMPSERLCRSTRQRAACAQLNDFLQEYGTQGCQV

Molecule: recombinant CR2CR1 #7 (CR2-CR1 fusion protein, CR2 SCR1-4 fused to CR1 SCR1-4, 7-11, 14-17), His-tagged
- Kd [1]: 10.5 nM
- koff [1]: 0.000663 s⁻¹
- kon [1]: 63300 M⁻¹ s⁻¹
- KD vs. hCR1 KD (X (fold of hCR1 KD)) [2]: 0.8

Molecule: recombinant CR2CR1 #1 (CR2-CR1 fusion protein, CR2 SCR1-4 fused to CR1 SCR1-10), His-tagged
- Kd [1]: 12.4 nM
- koff [1]: 0.000694 s⁻¹
- kon [1]: 56000 M⁻¹ s⁻¹
- KD vs. hCR1 KD (X (fold of hCR1 KD)) [2]: 0.94
- Kd [3]: 21100 nM

Molecule: Recombinant His-tagged human CR1 (R&D Systems) (from UniProt P17927 42-1971) (receptor)
- Kd [1]: 13.2 nM
- koff [1]: 0.000586 s⁻¹
- kon [1]: 44300 M⁻¹ s⁻¹
- Kd [4]: 3010 nM

B1: Recombinant His-tagged human CR2 (R&D Systems) (receptor, UniProt P20023 21-971, looked up)
chain: ISCGSPPPILNGRISYYSTPIAVGTVIRYSCSGTFRLIGEKSLLCITKDKVDGTWDKPAPKCEYFNKYSSCPEPIVPGGYKIRGSTPYRHGDSVTFACKTNFSMNGNKSVWCQANNMWGPTRLPTCVSVFPLECPALPMIHNGHHTSENVGSIAPGLSVTYSCESGYLLVGEKIINCLSSGKWSAVPPTCEEARCKSLGRFPNGKVKEPPILRVGVTANFFCDEGYRLQGPPSSRCVIAGQGVAWTKMPVCEEIFCPSPPPILNGRHIGNSLANVSYGSIVTYTCDPDPEEGVNFILIGESTLRCTVDSQKTGTWSGPAPRCELSTSAVQCPHPQILRGRMVSGQKDRYTYNDTVIFACMFGFTLKGSKQIRCNAQGTWEPSAPVCEKECQAPPNILNGQKEDRHMVRFDPGTSIKYSCNPGYVLVGEESIQCTSEGVWTPPVPQCKVAACEATGRQLLTKPQHQFVRPDVNSSCGEGYKLSGSVYQECQGTIPWFMEIRLCKEITCPPPPVIYNGAHTGSSLEDFPYGTTVTYTCNPGPERGVEFSLIGESTIRCTSNDQERGTWSGPAPLCKLSLLAVQCSHVHIANGYKISGKEAPYFYNDTVTFKCYSGFTLKGSSQIRCKADNTWDPEIPVCEKETCQHVRQSLQELPAGSRVELVNTSCQDGYQLTGHAYQMCQDAENGIWFKKIPLCKVIHCHPPPVIVNGKHTGMMAENFLYGNEVSYECDQGFYLLGEKKLQCRSDSKGHGSWSGPSPQCLRSPPVTRCPNPEVKHGYKLNKTHSAYSHNDIVYVDCNPGFIMNGSRVIRCHTDNTWVPGVPTCIKKAFIGCPPPPKTPNGNHTGGNIARFSPGMSILYSCDQGYLLVGEALLLCTHEGTWSQPAPHCKEVNCSSPADMDGIQKGLEPRKMYQYGAVVTLECEDGYMLEGSPQSQCQSDHQWNPPLAVCRSR
notes: Bought protein; also called rhCR2; hCR2; not shown: His tag
- Kd [5]: 439 nM
- Kd [6]: 6.51 nM
- koff [6]: 0.000965 s⁻¹
- kon [6]: 148000 M⁻¹ s⁻¹
